According to patent publication US20250361317A1 (Janssen / Centocor, published 2025):

Legend:
[1] = target: T1, EMR2W4, huEMR2 GAIN domain + GPS, D261-T540, with C-terminal Avi/6x His tag (human); assay: SPR protein binding (human), binding to EMR2W4
T1 construct: also called Human EMR2 GAIN domain protein
T1 chain: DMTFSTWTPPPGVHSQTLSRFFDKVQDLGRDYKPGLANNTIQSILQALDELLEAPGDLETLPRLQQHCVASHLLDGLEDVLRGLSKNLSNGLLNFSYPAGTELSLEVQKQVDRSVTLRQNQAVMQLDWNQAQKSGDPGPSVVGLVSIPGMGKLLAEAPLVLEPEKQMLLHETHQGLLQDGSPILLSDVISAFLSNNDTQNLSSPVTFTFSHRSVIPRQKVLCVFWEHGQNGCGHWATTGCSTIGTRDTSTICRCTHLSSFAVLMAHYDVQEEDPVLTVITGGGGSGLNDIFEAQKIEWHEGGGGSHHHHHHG

[2] = target: T2, T-cell receptor with TRBV19 (Vβ17) beta chain on human T cells (human); assay: flow cytometry, percent TRBV19+ of live pan-T cells, Donor 6, 1 hour, 37 °C
T2 construct: whole, on cells; also called Vb17; TRBV19+ T cells
T2 sequence (A0A075B6N1 22-114): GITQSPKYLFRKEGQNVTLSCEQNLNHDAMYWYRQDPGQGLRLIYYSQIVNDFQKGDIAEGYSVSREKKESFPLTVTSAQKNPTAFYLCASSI

[3] = target: T1, EMR2W4, huEMR2 GAIN domain + GPS, …; assay: SPR, EMR2 arm, forced degradation study: chemical oxidation
[4] = target: T1, EMR2W4, huEMR2 GAIN domain + GPS, …; assay: SPR, EMR2 arm, forced degradation study: pH 5.0
[5] = target: T2, T-cell receptor with TRBV19 (Vβ17) beta …; assay: cell-based or functional assay
[6] = target: T3, human EMR2 (ADGRE2, CD312) on cells (human, UniProt Q9UHX3 24-823); assay: cell-based or functional assay
T3 sequence: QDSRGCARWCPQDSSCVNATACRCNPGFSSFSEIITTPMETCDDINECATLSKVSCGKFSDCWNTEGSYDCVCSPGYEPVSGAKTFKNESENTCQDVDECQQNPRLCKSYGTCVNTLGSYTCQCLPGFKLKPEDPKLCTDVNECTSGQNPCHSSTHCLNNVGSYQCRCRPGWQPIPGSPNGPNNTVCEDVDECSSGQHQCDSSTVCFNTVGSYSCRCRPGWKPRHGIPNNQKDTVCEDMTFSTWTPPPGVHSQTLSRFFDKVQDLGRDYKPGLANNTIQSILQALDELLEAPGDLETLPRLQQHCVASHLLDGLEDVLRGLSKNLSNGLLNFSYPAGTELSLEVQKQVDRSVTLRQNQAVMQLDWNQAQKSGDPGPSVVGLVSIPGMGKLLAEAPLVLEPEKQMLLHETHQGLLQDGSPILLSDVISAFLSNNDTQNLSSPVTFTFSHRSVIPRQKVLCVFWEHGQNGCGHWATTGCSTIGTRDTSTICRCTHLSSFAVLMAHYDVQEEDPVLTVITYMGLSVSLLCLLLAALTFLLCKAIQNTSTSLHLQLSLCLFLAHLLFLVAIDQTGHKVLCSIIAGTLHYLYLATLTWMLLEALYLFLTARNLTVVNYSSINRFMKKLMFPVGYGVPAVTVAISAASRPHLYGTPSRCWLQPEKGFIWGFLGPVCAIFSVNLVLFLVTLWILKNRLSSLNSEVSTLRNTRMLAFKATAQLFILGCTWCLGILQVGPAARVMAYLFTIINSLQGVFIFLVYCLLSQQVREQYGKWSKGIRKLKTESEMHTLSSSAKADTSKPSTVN

[7] = target: T2, T-cell receptor with TRBV19 (Vβ17) beta …; assay: flow cytometry, % TRBV19+ T cells of live human pan-T cells, 1 hour at 37 C
[8] = target: T3, human EMR2 (ADGRE2, CD312) on cells; assay: flow cytometry, median AF647 of live cells, OCI-AML5 WT cells, 1 hour at 37 C
[9] = target: T1, EMR2W4, huEMR2 GAIN domain + GPS, …; assay: SPR, row 'SPR (KD) / EMR2' of the Forced Degradation table; first sample batch (in PBS); stress condition of the KD and EMR2 construct not named on the sheet
[10] = target: T1, EMR2W4, huEMR2 GAIN domain + GPS, …; assay: SPR, EMR2 arm, forced degradation study: Release
[11] = target: T3, human EMR2 (ADGRE2, CD312) on cells; assay: flow cytometry, MOLM-13 cells, 1 hour at 37 °C; mean ± SEM
Description: (§1) After secondary detection with AF647-labeled material, the MFI signal was analyzed to generate an EC50 value. Curves are representative of 3 independent experiments.

[12] = target: T3, human EMR2 (ADGRE2, CD312) on cells; assay: flow cytometry, OCI-AML2 cells, 1 hour at 37 °C; mean ± SEM
Description: as §1

[13] = target: T3, human EMR2 (ADGRE2, CD312) on cells; assay: flow cytometry, median AF647 of live cells, MOLM 13 cells, 1 hour at 37 C
FcRn (cyno) = target: T4, FcRn (cyno) (cynomolgus monkey, UniProt Q8SPV9 24-297; Q8SPW0 21-119); assay: FcRn binding (cyno, pH 6)
T4 construct: also called neonatal Fc receptor, cynomolgus monkey
T4 sequence (Q8SPV9 24-297 limits assumed, chain 1 of 2): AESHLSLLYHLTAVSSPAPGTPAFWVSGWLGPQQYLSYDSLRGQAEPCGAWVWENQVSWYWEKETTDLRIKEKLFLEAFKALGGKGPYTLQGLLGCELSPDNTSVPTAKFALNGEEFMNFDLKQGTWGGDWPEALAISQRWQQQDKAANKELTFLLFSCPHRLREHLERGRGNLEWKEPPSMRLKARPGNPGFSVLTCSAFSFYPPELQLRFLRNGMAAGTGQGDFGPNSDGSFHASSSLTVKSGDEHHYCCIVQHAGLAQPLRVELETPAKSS
T4 sequence (Q8SPW0 21-119 limits assumed, chain 2 of 2): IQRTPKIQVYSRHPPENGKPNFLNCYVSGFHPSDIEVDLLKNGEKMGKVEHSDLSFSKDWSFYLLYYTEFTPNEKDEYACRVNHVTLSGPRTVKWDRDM

[14] = target: T2, T-cell receptor with TRBV19 (Vβ17) beta …; assay: flow cytometry, percent TRBV19+ of live pan-T cells, Donor 3, 1 hour, 37 °C
FcRn (human) = target: T5, FcRn (human) (human, UniProt P55899 24-297; P61769 21-119); assay: FcRn binding (human, pH 6)
T5 construct: also called neonatal Fc receptor
T5 sequence (P55899 24-297 limits assumed, chain 1 of 2): as the sequence (Q8SPV9 24-297 limits assumed, chain 1 of 2) above, with D39N, Q44E, S99G, G189S, N190S, M217L, T269S counted along it
T5 sequence (P61769 21-119 limits assumed, chain 2 of 2): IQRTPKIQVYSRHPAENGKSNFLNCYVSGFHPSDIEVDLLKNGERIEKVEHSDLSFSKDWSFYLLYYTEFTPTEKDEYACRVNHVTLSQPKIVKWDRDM

B1: EMVBB8 (EMR2 x TRBV19 bispecific antibody) (bispecific antibody, human IgG1, kappa, L234A L235A)
heavy 1: DIQMTQSPSSLSASVGDRVTITCRSSQSLVHSNRNTYLHWYQQKPGCAPKLLIYKVSNRFSGVPSRFSGSGSGTDFTLTISSLQPEDFATYYCSQSTHVPFTFGQGTKLEIKGGGSGGSGGCPPCGGSGGQVQLQESGPGLVKPSETLSLTCTVSGYSITSGYFWNWIRQFPGKGLEWMGYISYDGSNNYNPSLKSRITISRDTSKNQFSLKLSSVTAADTAVYYCASPSPGTGYAVDYWGCGTTVTVSSEPKSSDKTHTCPPCPAPEAAGGPSVFLFPPKPKDTLMISRTPEVTCVVVSVSHEDPEVKFNWYVDGVEVHNAKTKPREEQYNSTYRVVSVLTVLHQDWLNGKEYKCKVSNKALPAPIEKTISKAKGQPREPQVYTLPPSREEMTKNQVSLWCLVKGFYPSDIAVEWESNGQPENNYKTTPPVLDSDGSFFLYSKLTVDKSRWQQGNVFSCSVMHEALHNHYTQKSLSLSPGK
heavy 2: EVQLVESGGGLVQPGGSLRLSCTASGFTFSRYSMNWVRQAPGEGLEWVSYISSSSNTIYYADSVKGRFTISRDNAKNSLYLQMNSLRDEDTAVYYCARDQGTPFDYWGQGTLVTVSSASTKGPSVFPLAPSSKSTSGGTAALGCLVKDYFPEPVTVSWNSGALTSGVHTFPAVLQSSGLYSLSSVVTVPSSSLGTQTYICNVNHKPSNTKVDKKVEPKSCDKTHTCPPCPAPEAAGGPSVFLFPPKPKDTLMISRTPEVTCVVVSVSHEDPEVKFNWYVDGVEVHNAKTKPREEQYNSTYRVVSVLTVLHQDWLNGKEYKCKVSNKALPAPIEKTISKAKGQPREPQVYTLPPSREEMTKNQVSLSCAVKGFYPSDIAVEWESNGQPENNYKTTPPVLDSDGSFFLVSKLTVDKSRWQQGNVFSCSVMHEALHNRFTQKSLSLSPGK
light: EIVLTQSPSSVSASIGDRVTITCRASQDISSWLGWYQQKPGKAPKLLIYAAISLQSGVPSRFSGSESGTDFTLTISSLQPEDFATYYCHQANSFPLTFGGGTKVEIKRTVAAPSVFIFPPSDEQLKSGTASVVCLLNNFYPREAKVQWKVDNALQSGNSQESVTEQDSKDSTYSLSSTLTLSKADYEKHKVYACEVTHQGLSSPVTKSFNRGEC
notes: also called the bispecific antibody
Kd [1]: 0.193 nM | EC50 [2]: 4.9 nM | Kd [3]: 0.2 nM | Kd [4]: 0.2 nM | Pan-T-cell activation (CD25), EC50 (nM), 24 hours, PBMC + OCI-AML3 [5]: 0.02 nM | Pan-T-cell activation (CD25), EC50 (nM), 48 hours, PBMC + OCI-AML3 [5]: 0.01 nM | Pan-T-cell activation (CD25), EC50 (nM), 72 hours, PBMC + OCI-AML3 [5]: 0.01 nM | Pan-T-cell activation (CD25), EC50 (nM), 96 hours, PBMC + OCI-AML3 [5]: 0.01 nM | Pan-T-cell activation (CD25), EC50 (nM), 120 hours, PBMC + OCI-AML3 [5]: 0.01 nM | Cytotoxicity, EC50 (nM), 24 hours, PBMC + OCI-AML3 [6]: 0.02 nM | Cytotoxicity, EC50 (nM), 48 hours, PBMC + OCI-AML3 [6]: 0.01 nM | Cytotoxicity, EC50 (nM), 72 hours, PBMC + OCI-AML3 [6]: 0.004 nM | Cytotoxicity, EC50 (nM), 96 hours, PBMC + OCI-AML3 [6]: 0.003 nM | Cytotoxicity, EC50 (nM), 120 hours, PBMC + OCI-AML3 [6]: 0.004 nM | EC50 [7]: 13.1 nM | Max % TRV19+ [7]: 7.72% | EC50 [8]: 13.4 nM | Max (MFI) [8]: 260000 MFI | Kd [9]: 0.154 nM | Kd [10]: 0.19 nM | EC50 [11]: 53 nM | EC50 [12]: 55 nM | EC50 [13]: 16.4 nM | Max (MFI) [13]: 400000 MFI | Kd (FcRn (cyno)): 454 nM | EC50 [14]: 6.2 nM | Kd (FcRn (human)): 306 nM
